Results on 1 substance are retold here after patent publication US20180258172A1.

Assay [1] deals with human zB7H6 (full-length, on cells) (human) (UniProt Q68D85). Briefly: competition flow cytometry, zB7H6-transfected P815 cells, 100-fold mass excess of isotype control antibody against NKp30/mFc2-biotin (no competition).
For assay [2] the target is unchanged. The assay is described as follows: competition flow cytometry, zB7H6-transfected P815 cells, 100-fold mass excess of isotype control antibody (no competition).

Sequence of human zB7H6 (full-length, on cells) (human) (Q68D85 25-454): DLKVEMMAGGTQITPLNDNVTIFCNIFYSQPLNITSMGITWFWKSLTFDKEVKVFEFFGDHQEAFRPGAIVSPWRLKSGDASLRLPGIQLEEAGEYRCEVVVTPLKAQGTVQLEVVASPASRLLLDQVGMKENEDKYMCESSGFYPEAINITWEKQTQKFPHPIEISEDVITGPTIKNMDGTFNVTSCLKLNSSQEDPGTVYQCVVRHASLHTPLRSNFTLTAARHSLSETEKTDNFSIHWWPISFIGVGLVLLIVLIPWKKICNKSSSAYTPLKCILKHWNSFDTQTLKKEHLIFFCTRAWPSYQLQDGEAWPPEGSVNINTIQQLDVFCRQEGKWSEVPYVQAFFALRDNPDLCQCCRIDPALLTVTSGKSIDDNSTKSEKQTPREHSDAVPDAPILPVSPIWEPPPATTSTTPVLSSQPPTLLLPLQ

For the substance isotype control antibody, in assay [1], the MFI of NKp30/mFc2-biotin in the presence of the competitor came out at 775. For the same substance, in assay [2], the MFI of anti-zB7H6-A647 in the presence of the competitor came to 500.
